One data set concerns the target T1, WBSCR27 (Mus musculus, UniProt Q8BGM4).
T1 construct: gene Mettl27; recombinant, 15N-labelled; purification details only in supplement
T1 sequence (Q8BGM4 1-238): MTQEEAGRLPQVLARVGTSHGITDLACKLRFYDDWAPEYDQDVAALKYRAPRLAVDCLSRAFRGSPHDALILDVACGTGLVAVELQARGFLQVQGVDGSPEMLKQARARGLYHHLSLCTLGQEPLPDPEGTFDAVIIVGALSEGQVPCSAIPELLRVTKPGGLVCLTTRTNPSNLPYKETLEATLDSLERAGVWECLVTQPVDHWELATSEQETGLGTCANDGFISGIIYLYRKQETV
Kind of data set: 1H, […] HSQC NMR titration. The conditions noted are these: 15N-labelled apo protein 0.2 mM, ligand 1:1 to 1:5; cofactor site. In kind it is binding.

A further data set concerns T2, CI.
T2 construct: engineered variant V140T, recombinant; expression details only in supplement
Description: Michaelis-Menten kinetics of SAH-PH methylation. The class given is biochemical, Arabidopsis thaliana. The conditions noted are these: co-substrate rac-SAH-PH.

Counter-ions that a name gives are not always drawn.

As to `C[S+](CCC(N)[PH](=O)O)C[C@H]1O[C@@H](n2cnc3c(N)ncnc32)[C@H](O)[C@@H]1O` (mixture of isomers) [rac-SAM-PH, 5′-{S-[3-Amino-3-(hydrohydroxyphosphoryl)propy]-S-methylthionia}-5′-deoxyadenosine hydrochloride], on WBSCR27, the “1H,15N HSQC NMR titration” value was “WBSCR27 strongly binds to SAM-P H”.

On to “AtHMT^V140T (Arabidopsis thaliana; V140T)”, for which, in the data set with CI, the Km is listed as 5.3 ± 3 mM and the kcat was 0.3 ± 0.033 s⁻¹.

As usually defined, the Km is the substrate concentration at which the rate is half of its maximum. In general, kcat refers to the number of substrate molecules converted per active site and unit of time at saturation.

Source of the values: paper PMC11325224, “Organophosphorus S-adenosyl-L-methionine mimetics: synthesis, stability, and substrate properties” (Frontiers in Chemistry, 2024).
